In test [1] the target is LC3B-115 (residues 1-115) (human, UniProt Q9GZQ8 1-115). The experiment in a line: ITC; 25 °C; 20 mM HEPES pH 7.5, 200 mM NaCl, 0.5 mM TCEP; 10~68 uM LC3B proteins in the cell, 10-fold higher concentration of ATG4b in the syringe; single-site binding model. To be noted: both partners purified. In general terms: In ITC the heat of successive injections is recorded.
Another test concerns the target LC3B-I (residues 1-120) (human, UniProt Q9GZQ8 1-120). The description is as above. To be noted: both partners purified.
Test [2] addresses pro-LC3B (residues 1-125) (human, UniProt Q9GZQ8 1-120). The experiment in a line: cell-based or functional assay.

B1: ATG4b WT (full-length ATG4b) (enzyme)
chain: MDAATLTYDTLRFAEFEDFPETSEPVWILGRKYSIFTEKDEILSDVASRLWFTYRKNFPAIGGTGPTSDTGWGCMLRCGQMIFAQALVCRHLGRDWRWTQRKRQPDSYFSVLNAFIDRKDSYYSIHQIAQMGVGEGKSIGQWYGPNTVAQVLKKLAVFDTWSSLAVHIAMDNTVVMEEIRRLCRTSVPCAGATAFPADSDRHCNGFPAGAEVTNRPSPWRPLVLLIPLRLGLTDINEAYVETLKHCFMMPQSLGVIGGKPNSAHYFIGYVGEELIYLDPHTTQPAVEPTDGCFIPDESFHCQHPPCRMSIAELDPSIAVGFFCKTEDDFNDWCQQVKKLSLLGGALPMFELVELQPSHLACPDVLNLSLDSSDVERLERFFDSEDEDFEILSL
For orientation: stoichiometry N means a count of units in the complex or per binding partner. In general, Kd refers to the concentration at which binding is half-saturated. For the molecule B1, the “stoichiometry N” value in test [1] is 0.9 ± 0.2. Besides, in the test with LC3B-I (residues 1-120), the affinity, expressed as Kd, was 4.7 µM and the “stoichiometry N” value stood at 0.9 ± 0.2.

B2: ATG4b-366 (domain or fragment)
chain: MDAATLTYDTLRFAEFEDFPETSEPVWILGRKYSIFTEKDEILSDVASRLWFTYRKNFPAIGGTGPTSDTGWGCMLRCGQMIFAQALVCRHLGRDWRWTQRKRQPDSYFSVLNAFIDRKDSYYSIHQIAQMGVGEGKSIGQWYGPNTVAQVLKKLAVFDTWSSLAVHIAMDNTVVMEEIRRLCRTSVPCAGATAFPADSDRHCNGFPAGAEVTNRPSPWRPLVLLIPLRLGLTDINEAYVETLKHCFMMPQSLGVIGGKPNSAHYFIGYVGEELIYLDPHTTQPAVEPTDGCFIPDESFHCQHPPCRMSIAELDPSIAVGFFCKTEDDFNDWCQQVKKLSLLGGALPMFELVELQPSHLACPDVLN
On to B2, for which the “fold decrease in KM of cleavage of the FRET substrate CFP-proLC3B-YFP, further fold against ATG4b-382” value in test [2] was 2.6 fold.

These data come from PMC9631991 (Biochemistry, 2022).
